Measured values: patent publication US20240058465A1 (SUTRO BIOPHARMA, published 2024)
Changes are numbered by the printed parent chain.

How the values were obtained:
[1] = molecular target: T1, human ROR1 (hROR1) (human, UniProt Q01973 30-937); assay: flow cytometry, HCT116-hROR1 cells; NSB = non-saturating binding
T1 construct: On HCT116-hROR1 transfectants, Mino cells or Ntera-2 cells, as the assay of each row says; also called receptor tyrosine kinase like orphan receptor 1

[2] = molecular target: T2, human ROR1 extracellular domain (human, UniProt Q01973 30-406); assay: SPR (Biacore T200), IgG captured by anti-human Fc, ROR1 ECD as analyte, 1:1 Langmuir fit
T2 construct: Bought recombinant protein (Acro Biosystems); also called ROR1 ECD; hROR1
Procedure: (§1) The data was fit with the Biacore™ T200 Evaluation software, using a 1-1 Langmuir binding model. KD (affinity, nM) was determined as a ratio of the kinetic rate constants calculated from the fits of the association and dissociation phases.

[3] = molecular target: T3, human ROR1 Immunoglobulin domain (Ig, residues 39-151) with C-terminal HIS6 tag (human, UniProt Q01973 39-151); assay: SPR kinetic screen (Biacore), antibody captured as ligand (Fc=2-1), sample printed as ROR1 Ig, 25 C, 1:1 binding model
T3 construct: Made in HEK293 cells and purified (Acro Biosystems)

[4] = molecular target: ROR1 (recombinant protein coated on the ELISA plate, Example 11) (UniProt Q01973 30-403, limits assumed); assay: ELISA: ROR1 coated on the plate, antibody titrated 3-fold from 5 ug/mL, HRP anti-human Fc, chemiluminescence (ELISA RLU)
Source text: The anti-ROR1 lead antibodies were discovered from a Fab ribosome display library that contained CDR H1, H2, and H3 diversity and utilized a constant LC (trastuzumab LC). In this example, the HCs of the lead antibodies were co-expressed with trastuzumab LC or different LCs derived from anti-CD3 antibodies: hOKT3-LC1, hSP34-LC3, hUCHT1-LC3 to determine if the anti-ROR1 HC leads would retain binding to ROR1 when assembled with anti-CD3 LCs. […] The antibodies were then purified and tested for ROR1 binding by ELISA. The ELISA assay was carried out as follows. Briefly, 2 μg/mL of ROR1 was coated to a 384-well polystyrene plate for 1 hr at 30° C. in 0.1 M bicarbonate pH8.9 buffer before it was washed and blocked with 2% BSA in PBST (PBS, 0.1% Tween20) for 1 hr. Antibody variants were diluted to 5 μg/mL and further serially diluted 3-fold before 30 μL was applied to the ELISA plates for binding ([…] Antibody binding was detected via HRP-conjugated anti-human Fc antibodies (Jackson Immunoresearch) and detection with SuperSignal ELISA Pico Chemiluminescent Substrate (Pierce).

[5] = molecular target: T3, human ROR1 Immunoglobulin domain (Ig, …); assay: SPR kinetic screen (Biacore), antibody captured as ligand (Fc=4-1), sample printed as ROR1 Ig, 25 C, 1:1 binding model; fit to a flat sensorgram
[6] = molecular target: T3, human ROR1 Immunoglobulin domain (Ig, …); assay: SPR kinetic screen (Biacore), antibody captured as ligand (Fc=2-1), sample printed as ROR1 Ig, 25 C, 1:1 binding model; remark: listed apart in the source
[7] = molecular target: T1, human ROR1 (hROR1); assay: cell-based or functional assay
[8] = molecular target: T4, human ROR1 Frizzled domain (hROR1-Fz) (human, UniProt Q01973 165-305); assay: SPR Biacore, IgG on anti-Fc, ROR1-Fz analyte
T4 construct: Acro Biosystems, made in HEK293
Outline: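 Test antibodies captured on an anti-Fc surface (CM5 chip), then analyte bound for 180 s with 600 s dissociation at 25° C in HBS-EP+ buffer at 50 μL/min. Human ROR1 ECD, Frizzled or Kringle domain used as analyte; regeneration with 10 mM glycine pH 2.0.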

[9] = molecular target: T5, human ROR1 Frizzled domain (Fz, residues 165-305) with C-terminal HIS6 tag (human, UniProt Q01973 165-305); assay: SPR (Biacore T200), IgG captured by anti-human Fc, ROR1 Fz as analyte, 1:1 Langmuir fit
T5 construct: Made in HEK293 cells and purified (Acro Biosystems); also called ROR1 Fz; hROR1-Fz
Procedure: as §1

[10] = molecular target: T6, human ROR1 frizzled domain (hROR1-Fz) (human, UniProt Q01973 165-305); assay: SPR kinetic screen (Biacore), antibody captured as ligand (Fc=3-1), sample ROR1 Fz, 25 C, 1:1 binding model; fit to a low response of at most about 2 on the response axis; Table 7 lists this pair as 'Not detected'
T6 construct: From Acro Biosystems

[11] = molecular target: T1, human ROR1 (hROR1); assay: flow cytometry, HCT116-hROR1 cells

B1: SRP2193-A07 (antibody, IgG1, V domains shown)
VH: EVQLVESGGGLVQPGGSLRLSCAASGFNINASDIHWVRQAPGKGLGWVGAIDPNTGTTNYADSVKGRFTISADTSKNTAYLQMNSLRAEDTAVYYCARSRWFRVLWSYVFDYWGQGTLVTVSS
VL: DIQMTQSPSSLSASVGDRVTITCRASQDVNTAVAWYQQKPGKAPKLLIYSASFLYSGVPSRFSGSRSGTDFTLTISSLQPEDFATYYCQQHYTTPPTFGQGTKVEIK
notes: His/FLAG-tagged IgG1, cell-free; also called Antibody 97
**Q.** Does B1 bind [1]?
**A.** Result: binds

B2: SRP2193-A09 (antibody, IgG1, V domains shown)
VH: EVQLVESGGGLVQPGGSLRLSCAASGFNIGKHHIHWVRQAPGKGLEWVGVIDPKGGSTVYADSVKGRFTISADTSKNTAYLQMNSLRAEDTAVYYCARSRWSRVLWSYVFDYWGQGTLVTVSS
VL: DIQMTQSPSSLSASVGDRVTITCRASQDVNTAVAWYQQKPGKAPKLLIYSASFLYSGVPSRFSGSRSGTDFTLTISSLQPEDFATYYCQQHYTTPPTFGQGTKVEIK
notes: His/FLAG-tagged IgG1, cell-free; also called Antibody 94
**Q.** Does B2 bind [1]?
**A.** Result: binds

B3: SRP2193-A10 (antibody, IgG1, V domains shown)
VH: B2 VH with K31D, H32Y, H33Y, V50A, G55S, S57Y, S102F
VL: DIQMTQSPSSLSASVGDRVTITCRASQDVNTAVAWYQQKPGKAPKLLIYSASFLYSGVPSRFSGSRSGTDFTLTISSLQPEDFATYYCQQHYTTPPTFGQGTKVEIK
notes: His/FLAG-tagged IgG1, cell-free; also called Antibody 95
**Q.** Does B3 bind [1]?
**A.** Result: binds

B4: SRP2193-A11 (antibody, IgG1, V domains shown)
VH: B2 VH with G30D, K31A, H32Y, H33Y, V50A, G55S, I70T, S102F
VL: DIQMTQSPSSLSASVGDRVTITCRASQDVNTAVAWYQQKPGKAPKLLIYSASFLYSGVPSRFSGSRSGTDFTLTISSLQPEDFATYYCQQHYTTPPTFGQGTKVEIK
notes: His/FLAG-tagged IgG1, cell-free; also called Antibody 110
**Q.** Does B4 bind [1]?
**A.** Result: binds

B5: SRP2193-A08 (antibody, IgG1, V domains shown)
VH: B1 VH with N30I, A31D, D33Y, G46E, T55A, T57S, N59V, K65R, L81I
VL: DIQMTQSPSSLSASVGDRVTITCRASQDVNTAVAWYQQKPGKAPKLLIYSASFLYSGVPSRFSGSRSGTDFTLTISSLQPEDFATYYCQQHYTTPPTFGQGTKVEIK
notes: His/FLAG-tagged IgG1, cell-free; also called Antibody 112
**Q.** Does B5 bind [1]?
**A.** Result: binds

B6: 1987-C05 HC with Trastuzumab LC (antibody, V domains shown)
VH: EVQLVESGGGLVQPGGSLRLSCAASGFNISDYDIHWVRQAPGKGLEWVGGIDPDDGSTDYADSVKGRFTISADTSKNTAYLQMNSLRAEDTAVYYCARDYGVFDYWGQGTLVTVSS
VL: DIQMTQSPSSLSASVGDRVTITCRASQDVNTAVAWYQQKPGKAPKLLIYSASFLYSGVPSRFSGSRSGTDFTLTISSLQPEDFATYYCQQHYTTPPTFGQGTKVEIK
notes: also called 1987-C05 HC w/trstmb LC (parent IgG); SRP1987-C05
**Q.** Which results are given for B6?
**A.** Kd [2]: 0.277 nM; koff [2]: 0.000673 s⁻¹; kon [2]: 2.43e+06 M⁻¹ s⁻¹; Kd [3]: 0.00859 nM; koff [3]: 0.000705 s⁻¹; kon [3]: 8.2e+07 M⁻¹ s⁻¹; EC50 (read off the curve) [4]: ~0.04 µg/mL

B7: 1987-C05 HC co-expressed with hSP34-LC3 light chain (antibody, V domains shown)
VH: B6 VH
VL: QTVVTQEPSLTVSPGGTVTLTCGSSTGAVTSGYYPNWFQQKPGQAPRGLIGGTKFLAPGTPARFSGSLLGGKAALTLSGVQPEDEAEYYCALWYSNRWVFGGGTQLTVTG
notes: Only variable domains are tied to this pairing; also called 1987-C05 w/hSP34 LC3; 1987-C05 variant
**Q.** How did the Kd [5] turn out when B7 was run?
**A.** Its Kd is 34.1 nM.

**Q.** And the koff [5]?
**A.** The koff was 0.00133 s⁻¹.

**Q.** What about the kon [5] of the same binder?
**A.** Its kon is 38900 M⁻¹ s⁻¹.

B8: 1987-C05 HC with hUCHT1-LC3 light chain (antibody, V domains shown)
VH: B6 VH
VL: DIQMTQSPSTLSASVGDRVTITCRASQDIRNYLNWYQQKPGKAPKLLIYYTSRLHSGVPSRFSGSGSGTEYTLTISSLQPDDFATYYCQQGNTLPWTFGGGTKVEIK
notes: IgG with an anti-CD3 light chain; also called 1987-C05 HC w/hUCHT1 LC3
**Q.** For B8, which Kd [2] is on record?
**A.** The Kd was 1.14 nM.

**Q.** And the koff [2]?
**A.** The koff was 0.000645 s⁻¹.

**Q.** And the kon [2]?
**A.** The kon was 566000 M⁻¹ s⁻¹.

B9: 1987-C05 HC co-expressed with hUCHT1-LC3 light chain (antibody, V domains shown)
VH: B6 VH
VL: B8 VL
notes: Only variable domains are tied to this pairing; also called 1987-C05 w/hUCHT1 LC3; 1987-C05 variant
**Q.** What does the source list for B9?
**A.** Kd [6]: 2.6 nM; koff [6]: 0.133 s⁻¹; kon [6]: 5.11e+07 M⁻¹ s⁻¹; EC50 (read off the curve) [4]: ~0.03 µg/mL

B10: SRP1944-A07 (with trastuzumab LC) (antibody, IgG1, V domains shown)
VH: EVQLVESGGGLVQPGGSLRLSCAASGFNITGYYIHWVRQAPGKGLEWVGYISPNSGSTYYADSVKGRFTISADTSKNTAYLQMNSLRAEDTAVYYCARDSRRYVRPFDYWGQGTLVTVSS
VL: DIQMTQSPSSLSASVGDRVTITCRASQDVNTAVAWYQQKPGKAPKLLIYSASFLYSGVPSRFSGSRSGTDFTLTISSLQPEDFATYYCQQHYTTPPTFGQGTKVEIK
notes: Parent of SRP2194; His/FLAG-tagged IgG1, cell-free; also called Antibody 126
**Q.** Which results are given for B10?
**A.** Mino Nb-PBD, drug-conjugated 2° antibody Cell Killing EC50 [7]: 0.01 nM; Kd [8]: 24.5 nM; koff [8]: 0.01 s⁻¹; kon [8]: 559000 M⁻¹ s⁻¹

B11: 1944-A07 HC co-expressed with hSP34-LC3 light chain (antibody, IgG1, V domains shown)
VH: B10 VH
VL: B7 VL
notes: Only variable domains are tied to this pairing
**Q.** For B11, which “EC50 (read off the curve)” value [4] is on record?
**A.** Its value is about 0.05 µg/mL.

B12: 1944-A07 HC co-expressed with hUCHT1-LC3 light chain (antibody, V domains shown)
VH: B10 VH
VL: B8 VL
notes: as for B11
**Q.** With B12 as the binder, how does the “EC50 (read off the curve)” value [4] read?
**A.** The value was about 0.02 µg/mL.

B13: 1944-A07 HC with hUCHT1-LC3 light chain (antibody, V domains shown)
VH: B10 VH
VL: B8 VL
notes: IgG with an anti-CD3 light chain
**Q.** Which results are given for B13?
**A.** Kd [9]: 64.1 nM; koff [9]: 0.119 s⁻¹; kon [9]: 1.85e+06 M⁻¹ s⁻¹

B14: 1944-A07 HC with Trastuzumab LC (antibody, IgG1, V domains shown)
VH: B10 VH
VL: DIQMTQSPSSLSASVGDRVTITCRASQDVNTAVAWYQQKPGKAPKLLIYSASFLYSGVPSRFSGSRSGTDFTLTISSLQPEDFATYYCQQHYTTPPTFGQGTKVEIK
notes: Screening constructs are described as His- and FLAG-tagged IgG1; also called SRP1944-A07
**Q.** Which results are given for B14?
**A.** Kd [9]: 9.59 nM; koff [9]: 0.029 s⁻¹; kon [9]: 3.02e+06 M⁻¹ s⁻¹; EC50 (read off the curve) [4]: ~0.02 µg/mL

B15: 1944-A07 HC with hSP34-LC3 light chain (antibody, V domains shown)
VH: B10 VH
VL: B7 VL
notes: as for B13
**Q.** Which Kd [9] does the source give for B15 here?
**A.** The Kd was 6.35 nM.

**Q.** And the koff [9]?
**A.** The koff was 0.00228 s⁻¹.

**Q.** What about the kon [9] of the same binder?
**A.** The kon was 360000 M⁻¹ s⁻¹.

B16: 1944-A07 HC co-expressed with hOKT3-LC1 light chain (antibody, V domains shown)
VH: B10 VH
VL: DIQMTQSPSSLSASVGDRVTITCSASSSVSYMNWYQQKPGKAPKRLIYDTSKLASGVPSRFSGSGSGTEYTLTISSLQPEDFATYYCQQWSSNPFTFGQGTKLEIK
notes: as for B11
**Q.** B16 was tested. Which “EC50 (read off the curve)” value [4] did it give?
**A.** Its value is about 0.05 µg/mL.

**Q.** And the Kd [10]?
**A.** The Kd was 17.9 nM.

**Q.** And the koff [10]?
**A.** Its koff is 0.0137 s⁻¹.

**Q.** And the kon [10]?
**A.** The kon was 763000 M⁻¹ s⁻¹.

B17: SRP2194-A05 (antibody, IgG1, V domains shown)
VH: B10 VH with T30K, G31E, Y33H, S100H
VL: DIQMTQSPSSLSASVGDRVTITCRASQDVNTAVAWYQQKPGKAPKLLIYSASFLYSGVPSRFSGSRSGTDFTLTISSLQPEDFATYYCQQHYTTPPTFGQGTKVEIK
notes: His/FLAG-tagged IgG1, cell-free
**Q.** With B17 as the binder, how does the “Mino Nb-PBD, drug-conjugated 2° antibody Cell Killing EC50” value [7] read?
**A.** The value was 0.002 nM.

**Q.** What about the “Bmax (MFI)” value [11] of the same binder?
**A.** The value was 8810 MFI.

**Q.** And the Kd [11]?
**A.** The Kd was 0.31 nM.

**Q.** What about the Kd [8] of the same binder?
**A.** The Kd was 1.54 nM.

**Q.** And the koff [8]?
**A.** Its koff is 0.000317 s⁻¹.

**Q.** What about the kon [8] of the same binder?
**A.** The kon was 206000 M⁻¹ s⁻¹.
